Our source for the Km, kcat and kcat/Km values is paper PMC6333409, “Crystal structure of chloramphenicol-metabolizing enzyme EstDL136 from a metagenome” (PLoS ONE, 2019).

What is called kcat is the number of substrate molecules converted per active site and unit of time at saturation. By kcat/Km is commonly meant the second-order rate constant that governs catalysis at low substrate concentration.

The data set concerns CC(=O)Oc1ccc([N+](=O)[O-])cc1. The data set is described as follows: purified protein. Type of data set: biochemical, uncultured bacterium pDL136. To be noted: 50 mM Tris pH 8.0, 30°C, ~2 nM enzyme, value in parentheses is standard error.

In the case of “EstDL136 (wild-type full-length) (uncultured bacterium pDL136)”, the Km was 0.14 (0.016) mM, the turnover number (kcat) is 622 s⁻¹ and the kcat/Km is 4.4e+06 M⁻¹ s⁻¹.

“EstDL136 (wild-type full-length) (uncultured bacterium pDL136; F214A)”: the Km was 0.55 (0.051) mM, the kcat came to 641 s⁻¹ and the kcat/Km was 1.2e+06 M⁻¹ s⁻¹.

Regarding “EstDL136 (wild-type full-length) (uncultured bacterium pDL136; L206A)”, the Km is given as 0.40 (0.030) mM, the kcat was found to be 547 s⁻¹ and the specificity constant (kcat/Km) was found to be 1.4e+06 M⁻¹ s⁻¹.
